Test results from PMC4779955.

Target: T1, Lin28A (GST-His6 fusion) (Homo sapiens, UniProt Q9H9Z2 1-209)
T1 sequence: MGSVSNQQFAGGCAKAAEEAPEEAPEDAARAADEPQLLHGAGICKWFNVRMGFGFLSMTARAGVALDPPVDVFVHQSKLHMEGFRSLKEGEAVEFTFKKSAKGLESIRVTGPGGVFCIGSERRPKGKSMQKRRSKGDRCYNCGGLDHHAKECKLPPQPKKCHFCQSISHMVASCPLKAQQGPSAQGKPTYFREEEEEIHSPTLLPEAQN
Assay: EMSA

B1: Motif1 bubble duplex (dsDNA)
DNA 1: CTTCTGGCGCTGTCCATCACAAGGTGCTGAACCCAG
DNA 2: CTGGGTTCAGCACCATTTTTTGCGCCAGAAG
B1: binds.
